Reference: patent publication WO2021212049A2

Biological target: recombinant SARS-CoV-2 S protein ectodomain (residues 14-1211), 2P, furin site mutated, foldon, 8XHis (SARS-CoV-2), P0DTC2
Assay: ELISA on coated antigen, anti-human IgG-HRP
Settings: remark: other sources report otherwise

B1: mAb 2H04 (antibody)
chain 1: EVQLQQSGAELVKPGASVKMSCKASGYTFTSYWITWVKQRPGQGLEWIGDIYPGSGSTKYNEKFRSEATLTVDTSSTTAYMQLSSLTSEDSAVYYCARWDFYGSRTFDYWGQGTTLTVSS
chain 2: DIVLTQSPAILSVSPGERVSFSCRASQNIGTIIHWYQQRTNGSPRLLIKYASESVSGIPSRFSGSGSGTDFTLSINSVESEDIADYYCQQSSSWPLTFGAGTKLELK
  minimum positive concentration: < 5 µg/mL
